Reference: patent US20210002376A1 (UNIVERSIT T STUTTGART, published 2021)
Where two headings read alike, the source gives them in different places.

How the values were obtained:
[1] = target: T1, HER3 (on tumor cells) (UniProt P21860 20-1342, limits assumed); assay: flow cytometry on HER3-positive MCF-7 cells
T1 construct: whole, on cells; also called HER3 on MCF-7, SKBR-3 (SKBR3) and FaDu cells

[2] = target: T2, EGFR-Fc fusion protein (UniProt P00533 25-645); assay: ELISA, coated EGFR-Fc, anti-human Fab-HRP
T2 construct: range 25-645; Coated antigen in ELISA; not shown: Fc part of the fusion, not described

[3] = target: T3, HER3-Fc fusion protein (UniProt P21860 21-643); assay: ELISA, coated HER3-Fc, anti-human Fab-HRP
T3 construct: range 21-643; Coated antigen in ELISA; not shown: Fc part of the fusion, not described

[4] = target: T4, HER3-His (UniProt P21860 21-643); assay: simultaneous binding ELISA: coated EGFR-Fc, Db titrated, HER3-His 300 nM added, anti-His-HRP
T4 construct: range 21-643; also called His-tagged HER3; second antigen

[5] = target: T3, HER3-Fc fusion protein; assay: ELISA, coated HER3-Fc, anti-human Fab-HRP; remark: listed apart in the source
[6] = target: T4, HER3-His; assay: simultaneous binding ELISA: coated EGFR-Fc, Db titrated, HER3-His 300 nM added, anti-His-HRP; remark: listed apart in the source
[7] = target: T1, HER3 (on tumor cells); assay: flow cytometry on HER3-positive MCF-7 cells; remark: listed apart in the source
[8] = target: T2, EGFR-Fc fusion protein; assay: ELISA, coated EGFR-Fc, anti-human Fab-HRP; remark: listed apart in the source
[9] = target: T1, HER3 (on tumor cells); assay: flow cytometry on SKBR-3 cells
[10] = target: T1, HER3 (on tumor cells); assay: flow cytometry on MCF-7 cells
[11] = target: T1, HER3 (on tumor cells); assay: flow cytometry on FaDu cells
[12] = target: T4, HER3-His; assay: ELISA, coated His-tagged HER3 ECD, anti-human Fc-HRP
[13] = target: T4, HER3-His; assay: simultaneous binding ELISA: coated EGFR-Fc, Db titrated, HER3-His 300 nM added, anti-His-HRP; remark: listed apart in the source
[14] = target: T4, HER3-His; assay: as above; remark: listed apart in the source
[15] = target: T5, EGFR-His (UniProt P00533 25-645); assay: ELISA, coated His-tagged EGFR ECD, anti-human Fc-HRP
T5 construct: range 25-645; also called His-tagged EGFR

B1: Db3M6xhu225-Ig (bispecific antibody, human IgG1, kappa)
heavy: EVQLVESGGGLVQPGGSLRLSCAASGFSLTNYGVHWVRQAPGKGLEWLGVIWSGGNTDYNTPFTSRFTISRDNSKNTLYLQMNSLRAEDTAVYYCARALTYYDYEFAYWGQGTTVTVSSGGGGSQSALTQPASVSGSPGQSITISCTGTSSDVGSYNVVSWYQQHPGKAPKLIIYEVSQRPSGVSNRFSGSKSGNTASLTISGLQTEDEADYYCSSYAGSSIFVIFGGGTKVTVLASTKGPSVFPLAPSSKSTSGGTAALGCLVKDYFPEPVTVSWNSGALTSGVHTFPAVLQSSGLYSLSSVVTVPSSSLGTQTYICNVNHKPSNTKVDKKVEPKSCDKTHTCPPCPAPPVAGPSVFLFPPKPKDTLMISRTPEVTCVVVDVSHEDPEVKFNWYVDGVEVHNAKTKPREEQYNSTYRVVSVLTVLHQDWLNGKEYKCKVSNKGLPSSIEKTISKAKGQPREPQVYTLPPSRDELTKNQVSLTCLVKGFYPSDIAVEWESNGQPENNYKTTPPVLDSDGSFFLYSKLTVDKSRWQQGNVFSCSVMHEALHNHYTQKSLSLSPGK
light: EVQLLESGGGLVQPGGSLRLSCAASGFTFSHYVMAWVRQAPGKGLEWVSSISSSGGWTLYADSVKGRFTISRDNSKNTLYLQMNSLRAEDTAVYYCTRGLKMATIFDYWGQGTLVTVSSGGGGSDIQLTQSPSFLSASVGDRVTITCRASQSIGTNIHWYQQKPGKAPKLLIKYASESISGVPSRFSGSGSGTEFTLTISSLQPEDFATYYCQQNNNWPTTFGAGTKLEIKRTVAAPSVFIFPPSDEQLKSGTASVVCLLNNFYPREAKVQWKVDNALQSGNSQESVTEQDSKDSTYSLSSTLTLSKADYEKHKVYACEVTHQGLSSPVTKSFNRGEC
notes: also called bispecific, tetravalent Diabody-Ig targeting EGFR (hu225) and HER3 (3M6); DbEGFRxHER3-Ig
EC50 [1]: 1.54 nM | EC50 [2]: 0.48 nM | EC50 [3]: 1.4 nM | EC50 [4]: 1.3 nM

B2: Db3-43xhu225-Ig (bispecific antibody, human IgG1, kappa)
heavy: EVQLVESGGGLVQPGGSLRLSCAASGFSLTNYGVHWVRQAPGKGLEWLGVIWSGGNTDYNTPFTSRFTISRDNSKNTLYLQMNSLRAEDTAVYYCARALTYYDYEFAYWGQGTTVTVSSGGGGSQAGLTQPPAVSVAPGQTASITCGRDNIGSRSVHWYQQKPGQAPVLVVYDDSDRPAGIPERFSGSNYENTATLTISRVEAGDEADYYCQVWGITSDHVVFGGGTKLTVLASTKGPSVFPLAPSSKSTSGGTAALGCLVKDYFPEPVTVSWNSGALTSGVHTFPAVLQSSGLYSLSSVVTVPSSSLGTQTYICNVNHKPSNTKVDKKVEPKSCDKTHTCPPCPAPPVAGPSVFLFPPKPKDTLMISRTPEVTCVVVDVSHEDPEVKFNWYVDGVEVHNAKTKPREEQYNSTYRVVSVLTVLHQDWLNGKEYKCKVSNKGLPSSIEKTISKAKGQPREPQVYTLPPSRDELTKNQVSLTCLVKGFYPSDIAVEWESNGQPENNYKTTPPVLDSDGSFFLYSKLTVDKSRWQQGNVFSCSVMHEALHNHYTQKSLSLSPGK
light: QVQLQQSGPGLVKPSQTLSLTCAISGDSVSSNRAAWNWIRQSPSRGLEWLGRTYYRSKWYNDYAQSLKSRITINPDTPKNQFSLQLNSVTPEDTAVYYCARDGQLGLDALDIWGQGTMVTVSSGGGGSDIQLTQSPSFLSASVGDRVTITCRASQSIGTNIHWYQQKPGKAPKLLIKYASESISGVPSRFSGSGSGTEFTLTISSLQPEDFATYYCQQNNNWPTTFGAGTKLEIKRTVAAPSVFIFPPSDEQLKSGTASVVCLLNNFYPREAKVQWKVDNALQSGNSQESVTEQDSKDSTYSLSSTLTLSKADYEKHKVYACEVTHQGLSSPVTKSFNRGEC
notes: also called bispecific, tetravalent Diabody-Ig targeting EGFR (hu225) and HER3 (3-43) using CH1 and CL; DbEGFRxHER3-Ig
EC50 [5]: 0.34 nM | EC50 [6]: 0.85 nM | EC50 [7]: 0.054 nM | EC50 [8]: 0.43 nM

B3: 3-43-IgG (antibody, V domains shown)
VH: QVQLQQSGPGLVKPSQTLSLTCAISGDSVSSNRAAWNWIRQSPSRGLEWLGRTYYRSKWYNDYAQSLKSRITINPDTPKNQFSLQLNSVTPEDTAVYYCARDGQLGLDALDIWGQGTMVTVSS
VL: QAGLTQPPAVSVAPGQTASITCGRDNIGSRSVHWYQQKPGQAPVLVVYDDSDRPAGIPERFSGSNYENTATLTISRVEAGDEADYYCQVWGITSDHVVFGGGTKLTVL
EC50 [9]: 0.022 nM | EC50 [10]: 0.021 nM | EC50 [11]: 0.003 nM

B4: Db3-43xhu225-MHD2-Fc (bispecific antibody)
heavy: EVQLVESGGGLVQPGGSLRLSCAASGFSLTNYGVHWVRQAPGKGLEWLGVIWSGGNTDYNTPFTSRFTISRDNSKNTLYLQMNSLRAEDTAVYYCARALTYYDYEFAYWGQGTTVTVSSGGGGSQAGLTQPPAVSVAPGQTASITCGRDNIGSRSVHWYQQKPGQAPVLVVYDDSDRPAGIPERFSGSNYENTATLTISRVEAGDEADYYCQVWGITSDHVVFGGGTKLTVLASAELPPKVSVFVPPRDGFFGNPRKSKLICQATGFSPRQIQVSWLREGKQVGSGVTTDQVQAEAKESGPTTYKVTSTLTIKESDWLGQSMFTCRVDHRGLTFQQNASSMCVPDDKTHTCPPCPAPPVAGPSVFLFPPKPKDTLMISRTPEVTCVVVDVSHEDPEVKFNWYVDGVEVHNAKTKPREEQYNSTYRVVSVLTVLHQDWLNGKEYKCKVSNKGLPSSIEKTISKAKGQPREPQVYTLPPSRDELTKNQVSLTCLVKGFYPSDIAVEWESNGQPENNYKTTPPVLDSDGSFFLYSKLTVDKSRWQQGNVFSCSVMHEALHNHYTQKSLSLSPGK
light: QVQLQQSGPGLVKPSQTLSLTCAISGDSVSSNRAAWNWIRQSPSRGLEWLGRTYYRSKWYNDYAQSLKSRITINPDTPKNQFSLQLNSVTPEDTAVYYCARDGQLGLDALDIWGQGTMVTVSSGGGGSDIQLTQSPSFLSASVGDRVTITCRASQSIGTNIHWYQQKPGKAPKLLIKYASESISGVPSRFSGSGSGTEFTLTISSLQPEDFATYYCQQNNNWPTTFGAGTKLEIKRTAELPPKVSVFVPPRDGFFGNPRKSKLICQATGFSPRQIQVSWLREGKQVGSGVTTDQVQAEAKESGPTTYKVTSTLTIKESDWLGQSMFTCRVDHRGLTFQQNASSMCVPD
notes: homodimeric Fc part
EC50 [12]: 0.34 nM | EC50 [13]: 1.8 nM | EC50 [14]: 1.9 nM | EC50 [15]: 0.23 nM
